Tested on: MS2 coat protein
Assay: apparent KD of MS2 coat protein; higher = weaker reporter binding
Conditions: Eterna round: R107
In short: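 Binding of SNAP-549-labelled MS2 coat protein was measured on designed RNA switches transcribed on-chip from Illumina sequencing clusters. The protein rose in twofold steps from 0.7 or 1.5 nM to 3 µM, with 0.8–1.5 h per step early on and 10–20 min per step later, in 100 mM Tris-HCl pH 7.5, 80 mM KCl, 4 mM MgCl2, without or with constant ligand. Each design's apparent KD is the median of fits to its normalised cluster binding curves.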

[1] = input ligand: theophylline 20 uM
[2] = input ligand: theophylline 2 mM
[3] = input ligand: tryptophan 2.4 mM

Sequence	apparent KD of MS2 coat protein (input ligand: arginine 13.2 mM) [µM]	apparent KD of MS2 coat protein (input ligand: none) [µM]	apparent KD of MS2 coat protein [1] [µM]	apparent KD of MS2 coat protein [2] [µM]	apparent KD of MS2 coat protein [3] [µM]
GGGUGCGGGCGAAGGAGCGUGAAGACAUGAGGAUCACCCAUGUAGAGGCCCGAACAGGGUUCGCAGGUAGGUCGCGCGCGUGCCC [#1 Same State - Arginine B Attempt #5 (HarryS)]	0.0118	0.0156	0.0204	0.0186	0.0163
UGGUACAUGAGGAUCACCCAUGUGCCGGAUACCAGAGAGCCGGCUCUCCCUUGGCAGCUGGCGCGACAUGAGGAUCACCCAUGUG [Exclusion Theophylline A GF18]	0.0181	–	0.0322	–	0.0246
GGAUAGGACAGAAGGAGCGACAUGAGGAUCACCCAUGUGGAUCAACGACGAAAGUCGCCAUGUCAGGUAGGUCGCUGUCCUAUCG [ArgXB 8 #MS2Gate #StaticStem #MS2LeftOffAptamer]	0.139	0.511	0.549	0.969	0.918
AGUCUUGAACGAAGGAGCGACGUACAUGAGGAUCACCCAUGUGGGAGCGAAAGCUCCCAACGUCAGGUAGGUCGCGUUCGAGACA [SS-ArgB29]	0.0169	0.0177	0.0247	0.0204	0.0185
AUGCAUAGCGGAAGGAGCGCAAUAGAAUGACAUGAGGAUCACCCAUGUGUGUGAUGUGGGUUGCAGGUAGGUCGCCGAGUGGUAU [Exclusion - Arginine B (Freestyle 2)]	0.084	0.092	0.128	0.108	0.0905
GGACUAACCAGAAGGAGCGGCGCGCAGAAACUGCAAUUUCCUCCACACGAGGAUCACCCGUGUCAGGUAGGUCGCUGGUUAGUCG [ArgBX 29]	0.0131	0.0114	0.0151	0.0129	0.0123
GGGACAUCGGGAAGGAGCGCAUCCAAACCACACAUGAGGAUCACCCAUGUAUAAAUAUGCAUGCAGGUAGGUCGCCCGGUGCCUC [Axeenza]	0.0442	0.114	0.131	0.123	0.101
CGCUACGUAACUGAUACCAGUGUACUGACAUGAGGAUCACCCAUGUUGGGUUUUGUUGUACACCCUUGGCAGCAGAAUCGUAGCG [AstrosExyTheB#13]	0.0587	–	0.0792	–	0.0613
AAUACAGUGUCGGCCGCCACUGAAACAUGACAUGAGACAUGAGGAUCACCCAUGUACAUAAUAAACAGGACCGGGACCCAUGUAU [Same State Tryptophan B]	0.0289	–	0.0424	0.0425	–
CUCCCGUGAGCGGCCGCCACUGGAGGCUUUGCGCGACAUGAGGAUCACCCAUGUGUGCCCGGCGUUAGGACCGGGUUCGCGUGAG [#1 Same State - Tryptophan B Attempt #16 (HarryS)]	0.0088	0.0123	0.0139	0.0112	0.0112
AUCGUACCUAAUGAUACCAGCAAGUGAUCAUAACAUGAGGAUCACCCAUGUAAUCAGUGAUGCCCUUGGCAGCAUAAUCGAUACA [Same State - Theophylline B (Freestyle 3)]	0.103	–	0.17	–	0.129
CGCACAUGAGGAUCACCCAUGUGAGGGCAUCGAGGACCGGUACGGCCGCCACUCGCAGGACAUGAGGAUCACCCAUGUGCCGCCG [SSTA DOUBLE!!! :-D #5]	0.0221	0.0343	0.0529	0.0472	0.0244
UUACGAGGCUAUCCACUUUGAUUUUGUGAUACCAGAAUAAUUUUAUUCCCUUGGCAGCAUGACAUGAGGAUCACCCAUGUGUCUU [SSTheo A #4]	0.0343	–	0.0474	–	0.0425
AUACAUGAGGAUCACCCAUGUUAUAGUGAAGGAGCGACAUUUAUGUCAGGUAGGUCGCACUAAAGUUUAAUAAUUCUUUGAUCUU [JR_SSArginiA_Sub011]	0.0186	0.0157	0.0249	0.0156	0.0186
UAAGUUAGGGCGGCCGCCACUCGAACAUGAGGAUCACCCAUGUAAAUUAAUUAAAGGACAUGAAUGAGGACCGGGCCAAGUUAGA [Same State - Tryptophan B / A]	0.0139	–	0.0202	0.0152	–
UGGCGAGAAGGAAGGAGCGUCAGCUGAGUCACAUGAGGAUCACCCAUGUAGCACAUAGUGUGACAGGUAGGUCGCCUUCUGCCCU [SS-ArgB17]	0.0135	0.0103	0.0154	0.0108	0.00941
AAGGGACAUGAGGAUCACCCAUGUACCGAAGGAGCGGCAGAGAUGCCAGGUAGGUCGCGGUACUUGCCGGGUCAUUCAUGCUAAA [Isxeon]	0.00948	0.012	0.0143	0.0116	0.0135
UUAAUCAAAUUAGAAAACUAAUUUGCAGAAGGAGCGUGAUAAAACACAGGUAGGUCGCUGAAGGGAACAUGAGGAUCACCCAUGU [AstrosSSArgA#11]	0.0267	0.026	0.0357	0.0295	0.0257
